Experiments:
human CD33 V221A = human CD33 V221A (human, UniProt P20138 18-364); test: alanine scan, flow cytometry;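 note: HEK293-T cells transiently expressing single-residue alanine mutants of CD33 (alanine swapped to serine), antibody binding read by fluorescence in duplicate, background-subtracted, expressed relative to wild-type CD33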
Experimental: (§1) An alanine scan on human CD33 was performed to the determine the residues on CD33 that are involved in binding to the antibodies investigated. […] Briefly, a mutation library of CD33 was created by high-throughput, site-directed mutagenesis. Each residue was individually mutated to alanine, with alanine codons mutated to serine. The mutant library was arrayed in 384-well microplates and transiently transfected into HEK293-T. Following transfection, cells were incubated with the indicated antibodies (IgG or Fab) at concentrations pre-determined using an independent immunofluorescence titration curve on wild type CD33. […] Binding of each antibody to each mutant clone was determined in duplicates. For each point, background fluorescence was subtracted from the raw data, which were then normalized to antibody reactivity with wild type CD33.
(§2) Critical residues for antibody binding (outlined in dark grey) were residues whose mutations led to a binding of the test Abs of less than 20%. Additional secondary residues (outlined in light grey) were identified that led to a binding of the test Abs of between 20 and 40% as compared to the wild type CD33.

human CD33 I242A = human CD33 I242A (human, UniProt P20138 18-364); test: alanine scan, flow cytometry;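 note: HEK293-T cells transiently expressing single-residue alanine mutants of CD33 (alanine swapped to serine), antibody binding read by fluorescence in duplicate, background-subtracted, expressed relative to wild-type CD33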
Chain of human CD33 I242A (P20138 18-364 I242A limits assumed): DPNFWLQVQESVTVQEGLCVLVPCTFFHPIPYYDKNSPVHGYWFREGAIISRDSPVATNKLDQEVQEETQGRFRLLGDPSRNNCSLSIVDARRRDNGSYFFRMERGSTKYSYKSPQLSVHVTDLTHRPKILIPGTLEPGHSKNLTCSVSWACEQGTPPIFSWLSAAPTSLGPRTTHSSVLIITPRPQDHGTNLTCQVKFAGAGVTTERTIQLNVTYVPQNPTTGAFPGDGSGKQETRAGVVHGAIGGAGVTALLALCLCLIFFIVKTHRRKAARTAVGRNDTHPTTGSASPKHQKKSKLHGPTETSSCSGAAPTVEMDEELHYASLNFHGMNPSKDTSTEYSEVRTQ
Experimental: as §1, §2

human CD33 T268A = human CD33 T268A (human, UniProt P20138 18-364); test: alanine scan, flow cytometry;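 note: HEK293-T cells transiently expressing single-residue alanine mutants of CD33 (alanine swapped to serine), antibody binding read by fluorescence in duplicate, background-subtracted, expressed relative to wild-type CD33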
Chain of human CD33 T268A (P20138 18-364 T268A limits assumed): as the sequence (P20138 18-364 I242A limits assumed) above, with A225I, T251A counted along it
Experimental: as §1, §2

human CD33 A261S = human CD33 A261S (human, UniProt P20138 18-364); test: alanine scan, flow cytometry;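 note: HEK293-T cells transiently expressing single-residue alanine mutants of CD33 (alanine swapped to serine), antibody binding read by fluorescence in duplicate, background-subtracted, expressed relative to wild-type CD33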
Chain of human CD33 A261S (P20138 18-364 A261S limits assumed): as the sequence (P20138 18-364 I242A limits assumed) above, with A225I, A244S counted along it
Experimental: as §1, §2

human CD33 Q213A = human CD33 Q213A (human, UniProt P20138 18-364); test: alanine scan, flow cytometry
Chain of human CD33 Q213A (P20138 18-364 Q213A limits assumed): as the sequence (P20138 18-364 I242A limits assumed) above, with Q196A, A225I counted along it
Experimental: as §1, §2

human CD33 F216A = human CD33 F216A (human, UniProt P20138 18-364); test: alanine scan, flow cytometry
Experimental: as §1, §2

human CD33 P238A = human CD33 P238A (human, UniProt P20138 18-364); test: alanine scan, flow cytometry
Chain of human CD33 P238A (P20138 18-364 P238A limits assumed): as the sequence (P20138 18-364 I242A limits assumed) above, with P221A, A225I counted along it
Experimental: as §1, §2

human CD33 A265S = human CD33 A265S (human, UniProt P20138 18-364); test: alanine scan, flow cytometry
Experimental: as §1, §2

human CD33 Q236A = human CD33 Q236A (human, UniProt P20138 18-364); test: alanine scan, flow cytometry
Chain of human CD33 Q236A (P20138 18-364 Q236A limits assumed): as the sequence (P20138 18-364 I242A limits assumed) above, with Q219A, A225I counted along it
Experimental: as §1, §2

human CD33 N209A = human CD33 N209A (human, UniProt P20138 18-364); test: alanine scan, flow cytometry
Experimental: as §1, §2

human CD33 L210A = human CD33 L210A (human, UniProt P20138 18-364); test: alanine scan, flow cytometry
Chain of human CD33 L210A (P20138 18-364 L210A limits assumed): as the sequence (P20138 18-364 I242A limits assumed) above, with L193A, A225I counted along it
Experimental: as §1, §2

human CD33 V214A = human CD33 V214A (human, UniProt P20138 18-364); test: alanine scan, flow cytometry
Experimental: as §1, §2

human CD33 G207A = human CD33 G207A (human, UniProt P20138 18-364); test: alanine scan, flow cytometry
Chain of human CD33 G207A (P20138 18-364 G207A limits assumed): as the sequence (P20138 18-364 I242A limits assumed) above, with G190A, A225I counted along it
Experimental: as §1, §2

human CD33 G266A = human CD33 G266A (human, UniProt P20138 18-364); test: alanine scan, flow cytometry
Chain of human CD33 G266A (P20138 18-364 G266A limits assumed): as the sequence (P20138 18-364 I242A limits assumed) above, with A225I, G249A counted along it
Experimental: as §1, §2

human CD33 N237A = human CD33 N237A (human, UniProt P20138 18-364); test: alanine scan, flow cytometry
Chain of human CD33 N237A (P20138 18-364 N237A limits assumed): as the sequence (P20138 18-364 I242A limits assumed) above, with N220A, A225I counted along it
Experimental: as §1, §2

human CD33 L229A = human CD33 L229A (human, UniProt P20138 18-364); test: alanine scan, flow cytometry
Chain of human CD33 L229A (P20138 18-364 L229A limits assumed): as the sequence (P20138 18-364 I242A limits assumed) above, with L212A, A225I counted along it
Experimental: as §1, §2

human CD33 R254A = human CD33 R254A (human, UniProt P20138 18-364); test: alanine scan, flow cytometry
Chain of human CD33 R254A (P20138 18-364 R254A limits assumed): as the sequence (P20138 18-364 I242A limits assumed) above, with A225I, R237A counted along it
Experimental: as §1, §2

human CD33 K52I = human CD33 K52I (human, UniProt P20138 18-364); test: flow cytometry, transfected cells
human CD33 K52L = human CD33 K52L (human, UniProt P20138 18-364); test: flow cytometry, transfected cells
human CD33 K52T = human CD33 K52T (human, UniProt P20138 18-364); test: flow cytometry, transfected cells
human CD33 Y49Q = human CD33 Y49Q (human, UniProt P20138 18-364); test: flow cytometry, transfected cells
human CD33 D51K = human CD33 D51K (human, UniProt P20138 18-364); test: flow cytometry, transfected cells
human CD33 K52G = human CD33 K52G (human, UniProt P20138 18-364); test: flow cytometry, transfected cells
human CD33 K52Y = human CD33 K52Y (human, UniProt P20138 18-364); test: flow cytometry, transfected cells
human CD33 Y49I = human CD33 Y49I (human, UniProt P20138 18-364); test: flow cytometry, transfected cells
human CD33 Y49L = human CD33 Y49L (human, UniProt P20138 18-364); test: flow cytometry, transfected cells
human CD33 P48M = human CD33 P48M (human, UniProt P20138 18-364); test: flow cytometry, transfected cells
human CD33 P48S = human CD33 P48S (human, UniProt P20138 18-364); test: flow cytometry, transfected cells
human CD33 Y50R = human CD33 Y50R (human, UniProt P20138 18-364); test: flow cytometry, transfected cells
[1] = molecular target: human CD33 extracellular region F21L (human, UniProt P20138 22-259); test: BLI Octet, IgG captured on AHC, CD33 analyte;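 note: CD33 variants and wild type run as analyte at 5, 50 and 500 nM, 700 s association then 1200 s dissociation, buffer-only reference subtracted, global 1:1 fit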
Chain of human CD33 extracellular region F21L (P20138 other isoform, or with tags, fused parts or gaps F21L F21L): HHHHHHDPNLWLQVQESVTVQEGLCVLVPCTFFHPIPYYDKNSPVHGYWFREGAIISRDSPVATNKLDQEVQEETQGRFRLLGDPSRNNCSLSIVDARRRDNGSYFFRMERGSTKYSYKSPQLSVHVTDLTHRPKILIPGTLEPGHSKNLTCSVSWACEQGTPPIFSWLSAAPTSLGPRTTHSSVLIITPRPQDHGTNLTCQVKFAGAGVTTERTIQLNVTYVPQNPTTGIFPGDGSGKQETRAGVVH
Experimental: Human CD33 wt and variants, were used as analyte at 3 different concentrations (500, 50 and 5 nM). Association of the analyte to the antibodies was monitored for 700 s and dissociation of the analyte from the antibodies was monitored for 1200 s. Reference subtraction was performed against buffer only wells. AHC tips were regenerated using 10 mM Glycine-HCl pH 1.7. Data were analyzed with Octet Data Analysis software HT 12.0. Data were fitted to a 1:1 binding model. Kinetic rates ka and kd and response signal were globally fitted.

human CD33 P132Q = human CD33 P132Q (human, UniProt P20138 18-364); test: flow cytometry, transfected cells
human CD33 W22Y = human CD33 W22Y (human, UniProt P20138 18-364); test: flow cytometry, transfected cells
human CD33 S131W = human CD33 S131W (human, UniProt P20138 18-364); test: flow cytometry, transfected cells
human CD33 P132N = human CD33 P132N (human, UniProt P20138 18-364); test: flow cytometry, transfected cells
human CD33 F21H = human CD33 F21H (human, UniProt P20138 18-364); test: flow cytometry, transfected cells
human CD33 H45Y = human CD33 H45Y (human, UniProt P20138 18-364); test: flow cytometry, transfected cells
human CD33 P46I = human CD33 P46I (human, UniProt P20138 18-364); test: flow cytometry, transfected cells
human CD33 Q24H = human CD33 Q24H (human, UniProt P20138 18-364); test: flow cytometry, transfected cells
human CD33 Y129S = human CD33 Y129S (human, UniProt P20138 18-364); test: flow cytometry, transfected cells
human CD33 P46L = human CD33 P46L (human, UniProt P20138 18-364); test: flow cytometry, transfected cells
human CD33 Q24T = human CD33 Q24T (human, UniProt P20138 18-364); test: flow cytometry, transfected cells

Chain of human CD33 V221A (P20138 18-364 V221A limits assumed): as the sequence (P20138 18-364 I242A limits assumed) above, with V204A, A225I counted along it

B1: Refmab #5 (antibody, V domains shown)
VH: QVQLVQSGAEVKKPGASVKVSCKASGYTFTNYDINWVRQAPGQGLEWIGWIYPGDGSTKYNEKFKAKATLTADTSTSTAYMELRSLRSDDTAVYYCASGYEDAMDYWGQGTTVTVSS
VL: DIQMTQSPSSLSASVGDRVTINCKASQDINSYLSWFQQKPGKAPKTLIYRANRLVDGVPSRFSGSGSGQDYTLTISSLQPEDFATYYCLQYDEFPLTFGGGTKVEIK
notes: Full-length format is human IgG1 Fc silent (PG-LALA); also made as Fab; The alanine scan used IgG or Fab
- Mean % WT Binding (human CD33 V221A): 116 % WT binding
- Mean % WT Binding (human CD33 I242A): 81.8 % WT binding
- Mean % WT Binding (human CD33 T268A): 84.7 % WT binding
- Mean % WT Binding (human CD33 A261S): 79.8 % WT binding
- Mean % WT Binding (human CD33 Q213A): 128 % WT binding
- Mean % WT Binding (human CD33 F216A): 104 % WT binding
- Mean % WT Binding (human CD33 P238A): 157 % WT binding
- Mean % WT Binding (human CD33 A265S): 99.7 % WT binding
- Mean % WT Binding (human CD33 Q236A): 100 % WT binding
- Mean % WT Binding (human CD33 N209A): 88.1 % WT binding
- Mean % WT Binding (human CD33 L210A): 78.2 % WT binding
- Mean % WT Binding (human CD33 V214A): 127 % WT binding
- Mean % WT Binding (human CD33 G207A): 109 % WT binding
- Mean % WT Binding (human CD33 G266A): 111 % WT binding
- Mean % WT Binding (human CD33 N237A): 91.8 % WT binding
- Mean % WT Binding (human CD33 L229A): 106 % WT binding
- Mean % WT Binding (human CD33 R254A): 94.7 % WT binding

B2: Refmab #5 (antibody, human IgG1, V domains shown)
VH: B1 VH
VL: B1 VL
- binding result (human CD33 K52I): no binding (tested: below 20%)
- binding result (human CD33 K52L): no binding (tested: below 20%)
- binding result (human CD33 K52T): no binding (tested: below 20%)
- binding result (human CD33 Y49Q): no binding (tested: below 20%)
- binding result (human CD33 D51K): no binding (tested: below 20%)
- binding result (human CD33 K52G): no binding (tested: below 20%)
- binding result (human CD33 K52Y): no binding (tested: below 20%)
- binding result (human CD33 Y49I): no binding (tested: below 20%)
- binding result (human CD33 Y49L): no binding (tested: below 20%)

B3: Refmab #4 (antibody, human IgG1, V domains shown)
VH: QVQLVQSGAEVKKPGESVKVSCKASGYTFTNYGMNWVKQAPGQGLEWMGWINTYTGEPTYADKFQGRVTMTTDTSTSTAYMEIRNLGGDDTAVYYCARWSWSDGYYVYFDYWGQGTSVTVSS
VL: DIVMTQSPDSLTVSLGERTTINCKSSQSVLDSSTNKNSLAWYQQKPGQPPKLLLSWASTRESGIPDRFSGSGSGTDFTLTIDSPQPEDSATYYCQQSAHFPITFGQGTRLEIK
- binding result (human CD33 P48M): no binding (tested: below 20%)
- binding result (human CD33 P48S): no binding (tested: below 20%)
- binding result (human CD33 Y50R): no binding (tested: below 20%)
- % WT binding [1]: 109%

B4: Refmab #6 (antibody, V domains shown)
VH: QVQLQQPGAEVVKPGASVKMSCKASGYTFTSYYIHWIKQTPGQGLEWVGVIYPGNDDISYNQKFQGKATLTADKSSTTAYMQLSSLTSEDSAVYYCAREVRLRYFDVWGQGTTVTVSS
VL: EIVLTQSPGSLAVSPGERVTMSCKSSQSVFFSSSQKNYLAWYQQIPGQSPRLLIYWASTRESGVPDRFTGSGSGTDFTLTISSVQPEDLAIYYCHQYLSSRTFGQGTKLEIK
notes: as for B1
- Mean % WT Binding (human CD33 V221A): 94.6 % WT binding
- Mean % WT Binding (human CD33 I242A): 99 % WT binding
- Mean % WT Binding (human CD33 T268A): 100 % WT binding
- Mean % WT Binding (human CD33 A261S): 56.7 % WT binding
- Mean % WT Binding (human CD33 Q213A): 98 % WT binding
- Mean % WT Binding (human CD33 F216A): 82.5 % WT binding
- Mean % WT Binding (human CD33 P238A): 114 % WT binding
- Mean % WT Binding (human CD33 A265S): 107 % WT binding
- Mean % WT Binding (human CD33 Q236A): 103 % WT binding
- Mean % WT Binding (human CD33 N209A): 101 % WT binding
- Mean % WT Binding (human CD33 L210A): 96.9 % WT binding
- Mean % WT Binding (human CD33 V214A): 94.4 % WT binding
- Mean % WT Binding (human CD33 G207A): 98.6 % WT binding
- Mean % WT Binding (human CD33 G266A): 82.6 % WT binding
- Mean % WT Binding (human CD33 N237A): 101 % WT binding
- Mean % WT Binding (human CD33 L229A): 97.1 % WT binding
- Mean % WT Binding (human CD33 R254A): 95.7 % WT binding

B5: Refmab #6 (antibody, human IgG1, V domains shown)
VH: B4 VH
VL: B4 VL
- binding result (human CD33 P132Q): no binding (tested: below 20%)
- binding result (human CD33 W22Y): no binding (tested: below 20%)
- binding result (human CD33 S131W): no binding (tested: below 20%)
- binding result (human CD33 P132N): no binding (tested: below 20%)

B6: Refmab #3 (antibody, human IgG1, V domains shown)
VH: QVQLVQSGAEVKKPGSSVKVSCKASGYTFTDYNMHWVRQAPGQGLEWIGYIYPYNGGTGYNQKFKSKATITADESTNTAYMELSSLRSEDTAVYYCARGRPAMDYWGQGTLVTVSS
VL: DIQMTQSPSSLSASVGDRVTITCRASESVDNYGISFMNWFQQKPGKAPKLLIYAASNQGSGVPSRFSGSGSGTDFTLTISSLQPDDFATYYCQQSKEVPWTFGQGTKVEIK
- binding result (human CD33 F21H): no binding (tested: below 20%)
- binding result (human CD33 H45Y): no binding (tested: below 20%)
- binding result (human CD33 P46I): no binding (tested: below 20%)
- binding result (human CD33 Q24H): no binding (tested: below 20%)
- binding result (human CD33 Y129S): no binding (tested: below 20%)
- binding result (human CD33 P46L): no binding (tested: below 20%)
- binding result (human CD33 Q24T): no binding (tested: below 20%)
- % WT binding [1]: 0%
